Source: US20240018226A1

Target: pHrodo-labeled 4RON human tau P301L soluble oligomer (human), P10636
Experiment: cell-based or functional assay

pHrodo-labeled 4RON human tau P301L soluble oligomer (human), P10636, sequence (P10636 other isoform, or with tags, fused parts or gaps P301L P301L): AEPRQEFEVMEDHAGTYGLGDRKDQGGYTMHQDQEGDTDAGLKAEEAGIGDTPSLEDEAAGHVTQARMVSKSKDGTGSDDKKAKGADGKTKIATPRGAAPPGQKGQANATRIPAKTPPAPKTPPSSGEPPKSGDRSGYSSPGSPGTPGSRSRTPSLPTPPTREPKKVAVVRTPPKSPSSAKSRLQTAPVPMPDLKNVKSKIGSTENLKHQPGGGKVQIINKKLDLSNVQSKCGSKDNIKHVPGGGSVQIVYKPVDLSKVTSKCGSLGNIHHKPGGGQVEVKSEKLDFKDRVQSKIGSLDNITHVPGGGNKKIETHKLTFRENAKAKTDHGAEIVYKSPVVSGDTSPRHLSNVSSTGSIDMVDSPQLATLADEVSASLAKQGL

B1: mouse 3D6 (antibody, V domains shown)
VH: EVQLQQSGADLVRPGALVKLSCKASGFNIKDYYLHWVRQRPEQGLEWIGWIDPENGDTVYDPKFQGKATITADTSSNTAYLQLGSLTSEDTAVYFCSTLDFWGQGTTLTVSS
VL: not shown
modifications: here or on the partner: labeled with pHrodo Red succinimidyl ester (sites not given)
With B1 the IC50 of inhibition of tau internalization into B103 neuroblastoma cells (pHrodo Texas Red mean fluorescence intensity, FACS) was 9 nM.
